The values below are quoted from earlier work in patent publication US20260265800A1, “NEW FUCOSYLTRANSFERASES FOR IN VIVO SYNTHESIS OF LNFP-III” (DSM IP Assets B.V., priority 2022, published 2026).

The test system of this data set is β-galactosidase activity. Particulars: LacZ assay, cited from earlier work; for % Activity relative to PglpF: PglpF as positive reference, a range indicates results from multiple assays.

B1: PmglB_70UTR_SD9: promoter sequence, SEQ ID NO: 20 (nucleic acid)
DNA: TGCGTCGCCATTCTGTCGCAACACGCCAGAATGCGGCGGCGATCACTAACTCAACAAATCAGGCGATGTAACCGCTTTCAATCTGTGAGTGATTTCACAGTATCTTAACAATGTGATAGCTATGATTGCACCGTGCCTACAAGCATCGTGGAGGTCCGTGACTTTCACGCATACAACAAACATTAACCAAAGGAAAAACAGCT
As for B1, the “% Activity relative to PglpF” value was 180-226% and the Strength entry was “high (A regulatory element with an activity above 10,000 MU is considered strong)”.

B2: PmglB_70UTR_SD7: promoter sequence, SEQ ID NO: 24 (nucleic acid)
DNA: TGCGTCGCCATTCTGTCGCAACACGCCAGAATGCGGCGGCGATCACTAACTCAACAAATCAGGCGATGTAACCGCTTTCAATCTGTGAGTGATTTCACAGTATCTTAACAATGTGATAGCTATGATTGCACCGTGCCTACAAGCATCGTGGAGGTCCGTGACTTTCACGCATACAACAAACATTAACCAAGAGCAAAACAGCT
Take B2: the “% Activity relative to PglpF” value is reported as 127-173% and the Strength entry is “high (A regulatory element with an activity above 10,000 MU is considered strong)”.

B3: PmglB_70UTR_SD5: promoter sequence, SEQ ID NO: 22 (nucleic acid)
DNA: TGCGTCGCCATTCTGTCGCAACACGCCAGAATGCGGCGGCGATCACTAACTCAACAAATCAGGCGATGTAACCGCTTTCAATCTGTGAGTGATTTCACAGTATCTTAACAATGTGATAGCTATGATTGCACCGTGCCTACAAGCATCGTGGAGGTCCGTGACTTTCACGCATACAACAAACATTAACCAACCGAGAAACAGCT
Turning to B3, the “% Activity relative to PglpF” value was 146-152% and the Strength result is “high (A regulatory element with an activity above 10,000 MU is considered strong)”.

B4: PmglB_70UTR_SD4: promoter sequence, SEQ ID NO: 21 (nucleic acid)
DNA: TGCGTCGCCATTCTGTCGCAACACGCCAGAATGCGGCGGCGATCACTAACTCAACAAATCAGGCGATGTAACCGCTTTCAATCTGTGAGTGATTTCACAGTATCTTAACAATGTGATAGCTATGATTGCACCGTGCCTACAAGCATCGTGGAGGTCCGTGACTTTCACGCATACAACAAACATTAACCAACTAGGAAACAGCT
On to B4, for which the “% Activity relative to PglpF” value is 153%-353% and the Strength entry is given as “high (A regulatory element with an activity above 10,000 MU is considered strong)”.

B5: PmglB_70UTR: promoter sequence, SEQ ID NO: 25 (nucleic acid)
DNA: TGCGTCGCCATTCTGTCGCAACACGCCAGAATGCGGCGGCGATCACTAACTCAACAAATCAGGCGATGTAACCGCTTTCAATCTGTGAGTGATTTCACAGTATCTTAACAATGTGATAGCTATGATTGCACCGTGCCTACAAGCATCGTGGAGGTCCGTGACTTTCACGCATACAACAAACATTAACCAAGGAGGAAACAGCT
On to B5, for which the “% Activity relative to PglpF” value is recorded as 124-234% and the Strength entry is reported as “high (A regulatory element with an activity above 10,000 MU is considered strong)”.

B6: PglpA_70UTR: promoter sequence, SEQ ID NO: 26 (nucleic acid)
DNA: GAAAACATTCATAAATTAAATGTGAATTGCCGCACACATTATTAAATAAGATTTACAAAATGTTCAAAATGACGCATGAAATCACGTTTCACTTTCGAATTATGAGCGAATATGCGCGATGCCTACAAGCATCGTGGAGGTCCGTGACTTTCACGCATACAACAAACATTAACCAAGGAGGAAACAGCT
B6: the “% Activity relative to PglpF” value is given as 102-179% and the Strength result was “high (A regulatory element with an activity above 10,000 MU is considered strong)”.

B7: PglpF_SD4: promoter sequence, SEQ ID NO: 23 (nucleic acid)
DNA: ATGCGCAAATGCGGCACGCCTTGCAGATTACGGTTTGCCACACTTTTCATCCTTCTCCTGGTGACATAATCCACATCAATCGAAAATGTTAATAAATTTGTTGCGCGAATGATCTAACAAACATGCATCATGTACAATCAGATGGAATAAATGGCGCGATAACGCTCATTTTATGACGAGGCACACACATTTTAAGTTCGATATTTCTCGTTTTTGCTCGTTAACGATAAGTTTACAGCATGCCTACAAGCATCGTGGAGGTCCGTGACTTTCACGCATACAACAAACATTAACCAACTAGGAAACAGCT
Turning to B7, the “% Activity relative to PglpF” value is given as 140-161% and the Strength entry is listed as “high (A regulatory element with an activity above 10,000 MU is considered strong)”.

B8: PglpF_SD10: promoter sequence, SEQ ID NO: 29 (nucleic acid)
DNA: ATGCGCAAATGCGGCACGCCTTGCAGATTACGGTTTGCCACACTTTTCATCCTTCTCCTGGTGACATAATCCACATCAATCGAAAATGTTAATAAATTTGTTGCGCGAATGATCTAACAAACATGCATCATGTACAATCAGATGGAATAAATGGCGCGATAACGCTCATTTTATGACGAGGCACACACATTTTAAGTTCGATATTTCTCGTTTTTGCTCGTTAACGATAAGTTTACAGCATGCCTACAAGCATCGTGGAGGTCCGTGACTTTCACGCATACAACAAACATTAACCAACTGAGAAACAGCT
In the case of B8, the “% Activity relative to PglpF” value is on record as 88-96% and the Strength result was “high (A regulatory element with an activity above 10,000 MU is considered strong)”.

B9: PglpF_SD5: promoter sequence, SEQ ID NO: 30 (nucleic acid)
DNA: ATGCGCAAATGCGGCACGCCTTGCAGATTACGGTTTGCCACACTTTTCATCCTTCTCCTGGTGACATAATCCACATCAATCGAAAATGTTAATAAATTTGTTGCGCGAATGATCTAACAAACATGCATCATGTACAATCAGATGGAATAAATGGCGCGATAACGCTCATTTTATGACGAGGCACACACATTTTAAGTTCGATATTTCTCGTTTTTGCTCGTTAACGATAAGTTTACAGCATGCCTACAAGCATCGTGGAGGTCCGTGACTTTCACGCATACAACAAACATTAACCAACCGAGAAACAGCT
Regarding B9, the “% Activity relative to PglpF” value was 82-91% and the Strength entry was “high (A regulatory element with an activity above 10,000 MU is considered strong)”.

B10: PglpT_70UTR: promoter sequence, SEQ ID NO: 27 (nucleic acid)
DNA: CCATTTAGCCATAGTAAAAACATGAATTGTTTGATTTCGCGCATATTCGCTCATAATTCGAAAGTGAAACGTGATTTCATGCGTCATTTTGAACATTTTGTAAATCTTATTTAATAATGTGTGCGGCAATTCACATTTAATTTATGAATGTTTTCTTAACATCGCGGCATGCCTACAAGCATCGTGGAGGTCCGTGACTTTCACGCATACAACAAACATTAACCAAGGAGGAAACAGCT
As for B10, the “% Activity relative to PglpF” value is given as 102-240% and the Strength entry is reported as “high (A regulatory element with an activity above 10,000 MU is considered strong)”.
